Measurements as given in patent US20250011471A1 (published 2025).

Biological target: KLB + bFKB1
Assay: SPR; preformed bFKB1/KLB complex

koff [s⁻¹] | Binder
0.0402 | FGFR1b (receptor) RPSPTLPEQAQPWGAPVEVESFLVHPGDLLQLRCRLRDDVQSINWLRDGVQLAESNRTRITGEEVEVQDSVPADSGLYACVTSSPSGSDTTYFSVNVSDALPSSEDDDDDDDSSSEEKETDNTKPNRMPVAPYWTSPEKMEKKLHAVPAAKTVKFKCPSSGTPNPTLRWLKNGKEFKPDHRIGGYKVRYATWSIIMDSVVPSDKGNYTCIVENEYGSINHTYQLDVVERSPHRPILQAGLPANKTVALGSNVEFMCKVYSDPQPHIQWLKHIEVNGSKIGPDNLPYVQILKTAGVNTTDKEMEVLHLRNVSFEDAGEYTCLAGNSIGLSHHSAWLTVLEALEERPAVMTSPLYLE
0.00291 | FGFR1c (receptor) RPSPTLPEQAQPWGAPVEVESFLVHPGDLLQLRCRLRDDVQSINWLRDGVQLAESNRTRITGEEVEVQDSVPADSGLYACVTSSPSGSDTTYFSVNVSDALPSSEDDDDDDDSSSEEKETDNTKPNPVAPYWTSPEKMEKKLHAVPAAKTVKFKCPSSGTPNPTLRWLKNGKEFKPDHRIGGYKVRYATWSIIMDSVVPSDKGNYTCIVENEYGSINHTYQLDVVERSPHRPILQAGLPANKTVALGSNVEFMCKVYSDPQPHIQWLKHIEVNGSKIGPDNLPYVQILKTAGVNTTDKEMEVLHLRNVSFEDAGEYTCLAGNSIGLSHHSAWLTVLEALEERPAVMTSPLYLE
